B1: VRT-17 (Fc fusion)
chain: VTSVWTKGVTPPAKFTQGEDVFHAPYVANQGWYDITKTFNGKDNLLCGAATAGNMLHWWFDQNKEKIEAYLKKHPDKQKIIFGDQELLDVRKVINTKGDQTNSELFNYFRDKAFPGLSARRIGVFPDLVLDMFINGYYLNVYKTQTTDVNRTYQEKDRRGGIFDAVFTRGVQSKLLTSRHDFKEKNLKEISDLIKKELTEGKALGLSHTYANVRINHVINLWGADFDSNGNLKAIYVTDSDTNASIGMKKYFVGVNSAGKVAISAKEIKEDNIGAQVLGLFTLSTGQDSWNQTNDKTHTCPPCPAPEAAGAPSVFLFPPKPKDTLMISRTPEVTCVVVDVSHEDPEVKFNWYVDGVEVHNAKTKPREEQQNSTYRVVSVLTVLHQDWLNGKEYKCKVSNKALKAPIEKTISKAKGQPREPQVYTLPPSRDELTKNQVSLTCLVKGFYPSDIAVEWESNGQPENNYKTTPPVLDSDGSFFLYSKLTVDKSRWQQGNVFSCSVMHEALHNHYTQKSLSLSPG
B2: VRT-21 (Fc fusion)
chain: VTSVWTKGVTPPAKFTQGEDVFHAPYVANQGWYDITKTFNRKDNLLCGAATAGNMLHWWFDQNKEKIEAYLKKHPDKQKIIFGDQELLDVRKVINTKGDQTNSELFNYFRDKAFPGLSARRIGVFPDLVLDMFINGYYLNVYKTQTTDVNRTYQEKDRRGGIFDAVFTRGVQSKLLTSRHDFKEKNLKEISDLIKKELTEGKALGLSHTYANVRINHVINLWGADFDSNGNLKAIYVTDSDTRASIGMKKYFVGVNAAGKVAISAKEIKEDNIGAQVLGLFTLSTGQDSWNQTNDKTHTCPPCPAPEAAGAPSVFLFPPKPKDTLMISRTPEVTCVVVDVSHEDPEVKFNWYVDGVEVHNAKTKPREEQQNSTYRVVSVLTVLHQDWLNGKEYKCKVSNKALKAPIEKTISKAKGQPREPQVYTLPPSRDELTKNQVSLTCLVKGFYPSDIAVEWESNGQPENNYKTTPPVLDSDGSFFLYSKLTVDKSRWQQGNVFSCSVMHEALHNHYTQKSLSLSPG
B3: VRT-16 (Fc fusion)
chain: VTSVWTKGVTPPANFTQGEDVFHAPYVANQGWYDITKTFNGKDNLLCGAATAGNMLHWWFDQNKDQIKRYLEEHPEKQKINFNGEQLFDVKEAIDTKNHQLDSKLFEYFKEKAFPYLSTKHLGVFPDHVIDMFINGYRLSLTNHGPTPVKEGSKDKRGGIFDAVFTRGVQSKLLTSRHDFKEKNLKEISDLIKKELTEGKALGLSHTYANVRINHVINLWGADFDSNGNLKAIYVTDSDTNASIGMKKYFVGVNSAGKVAISAKEIKEDNIGAQVLGLFTLSTGQDSWNQTNDKTHTCPPCPAPEAAGAPSVFLFPPKPKDTLMISRTPEVTCVVVDVSHEDPEVKFNWYVDGVEVHNAKTKPREEQQNSTYRVVSVLTVLHQDWLNGKEYKCKVSNKALKAPIEKTISKAKGQPREPQVYTLPPSRDELTKNQVSLTCLVKGFYPSDIAVEWESNGQPENNYKTTPPVLDSDGSFFLYSKLTVDKSRWQQGNVFSCSVMHEALHNHYTQKSLSLSPG
B4: VRT-20 (Fc fusion)
chain: VTSVWTKGVTPPANFTQGEDVFHAPYVANQGWYDITKTFNRKDNLLCGAATAGNMLHWWFDQNKDQIKRYLEEHPEKQKINFKGEQLFDVKEAIDTKNHQLDSKLFEYFKEKAFPYLSTKHLGVFPDHVIDMFINGYRLSLTNHGPTPVKEGSKDKRGGIFDAVFTRGVQSKLLTSRHDFKEKNLKEISDLIKKELTEGKALGLSHTYANVRINHVINLWGADFDSNGNLKAIYVTDSDTEASIGMKKYFVGVNKAGKVAISAKEIKEDNIGAQVLGLFTLSTGQDSWNQTNDKTHTCPPCPAPEAAGAPSVFLFPPKPKDTLMISRTPEVTCVVVDVSHEDPEVKFNWYVDGVEVHNAKTKPREEQQNSTYRVVSVLTVLHQDWLNGKEYKCKVSNKALKAPIEKTISKAKGQPREPQVYTLPPSRDELTKNQVSLTCLVKGFYPSDIAVEWESNGQPENNYKTTPPVLDSDGSFFLYSKLTVDKSRWQQGNVFSCSVMHEALHNHYTQKSLSLSPG
B5: VRT-14 (Fc fusion)
chain: SQTEDSESLQRLRDIEDFQAEKKKQNVVYTKWLDGVDVKDHDFRKIVDGNIAYYATPLLNGRGFYDINKDFNRDSDKCAAAVAANMFHYWLDRNRDNVDRFLRQNPEKHGIIELPDGQLKLSDFLNTYESDDGYRDKSKLFDFISNNFNGPVWTDKLLDNYINGYAYNYKYGRTIEDPTKNTSKINFFKEVFNEKILTNNHSIRNQNEFSVLLSEALYTGKAIGLSYGPAGLRHSLGHIISVWGADLDADGNVVAIYVTDSDDKKLTIGDERVGLKRYKISTDDEGRLRLTAYEETHNTGGQIRGLWTLDTGKQAWADYFDKTEQTGTDQAEQDKTHTCPPCPAPEAAGAPSVFLFPPKPKDTLMISRTPEVTCVVVDVSHEDPEVKFNWYVDGVEVHNAKTKPREEQQNSTYRVVSVLTVLHQDWLNGKEYKCKVSNKALKAPIEKTISKAKGQPREPQVYTLPPSRDELTKNQVSLTCLVKGFYPSDIAVEWESNGQPENNYKTTPPVLDSDGSFFLYSKLTVDKSRWQQGNVFSCSVMHEALHNHYTQKSLSLSPG
B6: VRT-19 (Fc fusion)
chain: SQTEDSESLQRLRDIEDFQAEKKMQNVVYTKWLDGVDVKDHDFRKIVDGNIAYYATPLLNGRGFYDINKDFNRDNDKCAAAVAANMFHYWLDINRDNVDRFLRQNPEKHGIIELPDGQLKLSDFLNTYESDHGYRDKSKLFDFISNNFNGPVWTDKLLDNYINGYAYNYKYGRTIEDSTKNTSKINFFKEVFNEKILTNNHSIRNQNEFSVLLSEALYTGKAIGLSYGPAGLRHSLGHIISVWGADLDADGNVVAIYVTDSDDKKLTIGDERVGLKRYKISTDDENRLRLTAYEETHNTGGQIRGLWTLDTGKYAWADYFDKTEQTGTDQAEQDKTHTCPPCPAPEAAGAPSVFLFPPKPKDTLMISRTPEVTCVVVDVSHEDPEVKFNWYVDGVEVHNAKTKPREEQQNSTYRVVSVLTVLHQDWLNGKEYKCKVSNKALKAPIEKTISKAKGQPREPQVYTLPPSRDELTKNQVSLTCLVKGFYPSDIAVEWESNGQPENNYKTTPPVLDSDGSFFLYSKLTVDKSRWQQGNVFSCSVMHEALHNHYTQKSLSLSPG
B7: VRT-13 (Fc fusion)
chain: QITSVWTKGVTPPTPEQFRYNNEDVFHAPYTAHQGWYDITKTFDGKDNLLCGAATAGNMLHWWFDQNKTEIEAYLSKHPEKQKIIFNNQELFDLKAAIDTKDSQTNSALFNYFRDKAFPNLSARQLGVMPDLVLDMFINGYYLNVFKTQSTDVNRPYQDKDKRGGIFDAVFTRGDQTTLLTARHDLKNKTLNDISTIIKQELTEGRALALSHTYANVSISHVINLWGADFNAEGNLEAIYVTDSDSNASIGMKKYFVGVNASGKVAISAKKIEGENIGAQVLGLFTLSSGKDIWQKLSDKTHTCPPCPAPEAAGAPSVFLFPPKPKDTLMISRTPEVTCVVVDVSHEDPEVKFNWYVDGVEVHNAKTKPREEQQNSTYRVVSVLTVLHQDWLNGKEYKCKVSNKALKAPIEKTISKAKGQPREPQVYTLPPSRDELTKNQVSLTCLVKGFYPSDIAVEWESNGQPENNYKTTPPVLDSDGSFFLYSKLTVDKSRWQQGNVFSCSVMHEALHNHYTQKSLSLSPG
B8: VRT-18 (Fc fusion)
chain: QITSVWTKGVTPLTPEQFRYNNEDVIHAPYLAHQGWYDITKAFDGKDNLLCGAATAGNMLHWWFDQNKTEIEAYLSKHPEKQKIIFNNQELFDLKAAIDTKDSQTNSQLFNYFRDKAFPGLSARQLGVFPDLVLDMFINGYYLNVFKTQSTDVNRPYQDKDKRGGIFDAVFTRGVQTTLLTARHDLKNKGLNDISTIIKQELTEGRALALSHTYANVRISHVINLWGADFNAEGNLEAIYVTDSDANASIGMKKYFVGINAHGHVAISAKKIEGENIGAQVLGLFTLSSGKDIWQKLSDKTHTCPPCPAPEAAGAPSVFLFPPKPKDTLMISRTPEVTCVVVDVSHEDPEVKFNWYVDGVEVHNAKTKPREEQQNSTYRVVSVLTVLHQDWLNGKEYKCKVSNKALKAPIEKTISKAKGQPREPQVYTLPPSRDELTKNQVSLTCLVKGFYPSDIAVEWESNGQPENNYKTTPPVLDSDGSFFLYSKLTVDKSRWQQGNVFSCSVMHEALHNHYTQKSLSLSPG
B9: VRT-22 (Fc fusion)
chain: QITSVWTKGVTPLTPEQFRYYNEDVIHAPYLAHQGWYDITKAFDGKDNLLCGAATAGNMLHWWFDQNKTEIEAYLSKHPEKQKIIFKNQELFDLKAAIDTKDSQTNSQLFNYFRDKAFPGLSARQLGVFPDLVLDMFINGYYLNVFKTQSTDVNRPYQDKDKRGGIFDAVFTRGVQTTLLTARHDLKNKGLNDISTIIKQELTEGRALALSHTYANVRISHVINLWGADFNAEGNLEAIYVTDSDTRASIGMKKYFVGINAHGHVAISAKKIEGENIGAQVLGLFTLSSGKDIWQKLSDKTHTCPPCPAPEAAGAPSVFLFPPKPKDTLMISRTPEVTCVVVDVSHEDPEVKFNWYVDGVEVHNAKTKPREEQQNSTYRVVSVLTVLHQDWLNGKEYKCKVSNKALKAPIEKTISKAKGQPREPQVYTLPPSRDELTKNQVSLTCLVKGFYPSDIAVEWESNGQPENNYKTTPPVLDSDGSFFLYSKLTVDKSRWQQGNVFSCSVMHEALHNHYTQKSLSLSPG

The binders below were run against pooled human IgG (human) (assay: cell-based or functional assay).

Binder	Enzyme Activity Endpoint Assay: Fab′2 [ng/µL]	Enzyme Activity Endpoint Assay: Fc [ng/µL]	Enzyme Activity Endpoint Assay: IgG [ng/µL]	Enzyme Activity Endpoint Assay: scIgG [ng/µL]
B1	0	5	1030	20
B2	0	6	949	11
B3	0	130	682	91
B4	0	5	981	12
B5	0	4	1020	22
B6	0	54	1250	33
B7	0	97	814	42
B8	0	4	995	9
B9	0	31	1010	21
